Measured values reported in paper PMC2731889.

Target: ArdA protein from the conjugative transposon Tn916 (Enterococcus faecalis)
Assay: crystal structure

Substance: ArdA protein from the conjugative transposon Tn916 (natural protein)
- stoichiometry N: 2
